# Laboratory results reported in the supplement of paper PMC9112550, “Optimization of the antimicrobial peptide Bac7 by deep mutational scanning” (BMC Biology, 2022).
# Tested on: Escherichia coli TOP10
# Test: shrunken log2 fold change of peptide-encoding DNA abundance (4.5 h post-induction vs induction); higher = less antimicrobial activity (less host growth inhibition)
# Settings: time post-induction: 4.5 h; library: site-saturation at positions 5, 18, 19, 20
# 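Note: peptides expressed intracellularly from a pBAD plasmid library in pooled LB shake-flask culture, induced with 0.3% L-arabinose, DNA abundance read by NGS, three biological replicates, DESeq2 with apeglm shrinkage.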
row,Sequence,shrunken log2 fold change
1,RRIRMRPPRLPRPRPRPYMSPRP,-0.00176
2,RRIRTRPPRLPRPRPRPAHVPRP,0.0505
3,RRIRLRPPRLPRPRPRPWAFPRP,0.00977
4,RRIRGRPPRLPRPRPRPNHWPRP,0.309
5,RRIRYRPPRLPRPRPRPAVKPRP,-0.0154
6,RRIRVRPPRLPRPRPRPLRMPRP,0.191
7,RRIRMRPPRLPRPRPRPQEEPRP,-0.0207
8,RRIRLRPPRLPRPRPRPMFRPRP,-0.162
9,RRIRDRPPRLPRPRPRPQFKPRP,-0.0159
10,RRIRSRPPRLPRPRPRPTDTPRP,-0.214
11,RRIRPRPPRLPRPRPRPRSPPRP,0.592
12,RRIRMRPPRLPRPRPRPKQAPRP,3.56
13,RRIRPRPPRLPRPRPRPGGKPRP,0.12
14,RRIRYRPPRLPRPRPRPQVLPRP,-0.725
15,RRIRQRPPRLPRPRPRPDWHPRP,-0.038
16,RRIRRRPPRLPRPRPRPIATPRP,0.0769
17,RRIRHRPPRLPRPRPRPTTLPRP,-0.301
18,RRIRGRPPRLPRPRPRPDTQPRP,0.632
19,RRIRIRPPRLPRPRPRPNQCPRP,-0.465
20,RRIRDRPPRLPRPRPRPGMEPRP,0.784
21,RRIRARPPRLPRPRPRPSCHPRP,-0.138
22,RRIRQRPPRLPRPRPRPPTWPRP,-0.0557

row,Sequence,shrunken log2 fold change
1,RRIRLRPPRLPRPRPRPQNSPRP,-0.767
2,RRIRPRPPRLPRPRPRPCHHPRP,-0.536
3,RRIRLRPPRLPRPRPRPKGIPRP,-0.0776
4,RRIRFRPPRLPRPRPRPAPPPRP,0.736
5,RRIRHRPPRLPRPRPRPKRSPRP,0.0325
6,RRIRRRPPRLPRPRPRPETKPRP,0.511
7,RRIRSRPPRLPRPRPRPCEVPRP,-0.333
8,RRIRTRPPRLPRPRPRPKNVPRP,0.0149
9,RRIRERPPRLPRPRPRPVKGPRP,0.0229
10,RRIRLRPPRLPRPRPRPHLYPRP,0.61
11,RRIRFRPPRLPRPRPRPRHNPRP,-0.275
12,RRIRRRPPRLPRPRPRPCVFPRP,0.022
13,RRIRCRPPRLPRPRPRPSPTPRP,0.022
14,RRIRGRPPRLPRPRPRPCQLPRP,-0.327
15,RRIRWRPPRLPRPRPRPPNIPRP,-0.446
16,RRIRGRPPRLPRPRPRPPHQPRP,0.806
17,RRIRDRPPRLPRPRPRPSNVPRP,-0.0805
18,RRIRPRPPRLPRPRPRPTHIPRP,0.0811
19,RRIRFRPPRLPRPRPRPHYLPRP,-0.217
20,RRIRDRPPRLPRPRPRPHSEPRP,0.00449
21,RRIRHRPPRLPRPRPRPYLFPRP,-0.523
22,RRIRYRPPRLPRPRPRPQNFPRP,-0.00184

row,Sequence,shrunken log2 fold change
1,RRIRPRPPRLPRPRPRPLDMPRP,-0.142
2,RRIRERPPRLPRPRPRPCHGPRP,-0.989
3,RRIRYRPPRLPRPRPRPRREPRP,0.0181
4,RRIRLRPPRLPRPRPRPWRKPRP,0.125
5,RRIRSRPPRLPRPRPRPMKPPRP,-0.0309
6,RRIRTRPPRLPRPRPRPWYGPRP,-0.379
7,RRIRNRPPRLPRPRPRPHRYPRP,-0.345
8,RRIRKRPPRLPRPRPRPMLGPRP,0.00289
9,RRIRFRPPRLPRPRPRPSWQPRP,-0.149
10,RRIRIRPPRLPRPRPRPQLWPRP,0.575
11,RRIRDRPPRLPRPRPRPELHPRP,0.319
12,RRIRDRPPRLPRPRPRPEYMPRP,-0.00941
13,RRIRERPPRLPRPRPRPYIHPRP,-0.17
14,RRIRGRPPRLPRPRPRPQESPRP,-0.0432
15,RRIRGRPPRLPRPRPRPRMYPRP,0.0954
16,RRIRFRPPRLPRPRPRPQCVPRP,-0.276
17,RRIRHRPPRLPRPRPRPSHNPRP,-0.433
18,RRIRKRPPRLPRPRPRPARYPRP,0.513
19,RRIRYRPPRLPRPRPRPKACPRP,-0.00227
20,RRIRVRPPRLPRPRPRPWPCPRP,-0.22
21,RRIRERPPRLPRPRPRPTGHPRP,-0.0413
22,RRIRMRPPRLPRPRPRPGRNPRP,0.344

row,Sequence,shrunken log2 fold change
1,RRIRKRPPRLPRPRPRPTVSPRP,0.099
2,RRIRKRPPRLPRPRPRPVGAPRP,0.853
3,RRIRCRPPRLPRPRPRPYIKPRP,-0.791
4,RRIRFRPPRLPRPRPRPVMTPRP,-0.218
5,RRIRDRPPRLPRPRPRPHWPPRP,0.197
6,RRIRKRPPRLPRPRPRPDWFPRP,0.178
7,RRIRWRPPRLPRPRPRPNFTPRP,-0.0319
8,RRIRERPPRLPRPRPRPYEQPRP,-0.395
9,RRIRIRPPRLPRPRPRPRWVPRP,0.171
10,RRIRHRPPRLPRPRPRPLQVPRP,-0.28
11,RRIRYRPPRLPRPRPRPMREPRP,0.529
12,RRIRPRPPRLPRPRPRPRDKPRP,0.144
13,RRIRLRPPRLPRPRPRPVCVPRP,-0.115
14,RRIRHRPPRLPRPRPRPHFAPRP,-0.101
15,RRIRVRPPRLPRPRPRPVEAPRP,0.0669
16,RRIRLRPPRLPRPRPRPHCEPRP,-0.00711
17,RRIRIRPPRLPRPRPRPPSEPRP,-0.118
18,RRIRPRPPRLPRPRPRPDGRPRP,0.101
19,RRIRKRPPRLPRPRPRPVHWPRP,0.621
20,RRIRTRPPRLPRPRPRPVSKPRP,-0.096
21,RRIRGRPPRLPRPRPRPSYDPRP,-0.0196
22,RRIRKRPPRLPRPRPRPSLPPRP,-0.0153

row,Sequence,shrunken log2 fold change
1,RRIRFRPPRLPRPRPRPRDTPRP,0.0411
2,RRIRLRPPRLPRPRPRPWRPPRP,0.105
3,RRIRRRPPRLPRPRPRPPQDPRP,1.39
4,RRIRKRPPRLPRPRPRPVNNPRP,-0.241
5,RRIRVRPPRLPRPRPRPFMEPRP,-0.265
6,RRIRMRPPRLPRPRPRPIDPPRP,-0.0553
7,RRIRHRPPRLPRPRPRPDTGPRP,-0.014
8,RRIRVRPPRLPRPRPRPMGWPRP,0.202
9,RRIRGRPPRLPRPRPRPDQMPRP,0.633
10,RRIRPRPPRLPRPRPRPKPSPRP,0.699
11,RRIRNRPPRLPRPRPRPIDRPRP,0.00281
12,RRIRCRPPRLPRPRPRPSSHPRP,-0.0983
13,RRIRVRPPRLPRPRPRPWDFPRP,-0.0763
14,RRIRMRPPRLPRPRPRPRVSPRP,0.0315
15,RRIRWRPPRLPRPRPRPLDNPRP,-0.23
16,RRIRKRPPRLPRPRPRPHFMPRP,-0.171
17,RRIRKRPPRLPRPRPRPRQAPRP,1.79
18,RRIRLRPPRLPRPRPRPFVHPRP,-0.308
19,RRIRDRPPRLPRPRPRPWMIPRP,-0.124
20,RRIRWRPPRLPRPRPRPRVTPRP,1.75
21,RRIRQRPPRLPRPRPRPHKNPRP,-0.194
